Results from CN110734897A (ZHEJIANG BLUE SHIELD PHARMA CO LTD, dated 2020).

Target: T1, 重组人SIRPα-his融合蛋白 (Acro Biosystems SIA-H5225) (human, UniProt P78324 31-370)
T1 construct: Bought reagent; also called 人SIRPα重组蛋白; not shown: his tag
Assay: indirect ELISA screen of hybridoma supernatants, SIRPα-his coated

T1 sequence (P78324 31-370 limits assumed): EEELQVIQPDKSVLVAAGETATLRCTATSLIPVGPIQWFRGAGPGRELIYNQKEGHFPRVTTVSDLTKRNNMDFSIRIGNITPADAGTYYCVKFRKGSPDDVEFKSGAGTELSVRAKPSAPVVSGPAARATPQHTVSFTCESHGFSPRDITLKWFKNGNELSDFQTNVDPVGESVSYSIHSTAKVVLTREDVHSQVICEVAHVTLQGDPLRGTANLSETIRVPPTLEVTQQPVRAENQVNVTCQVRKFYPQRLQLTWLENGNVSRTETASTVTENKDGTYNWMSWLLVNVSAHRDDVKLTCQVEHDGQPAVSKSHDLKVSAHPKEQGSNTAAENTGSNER

binding result: binds
B1: 杂交瘤细胞株12G6产生的抗人SIRPα单克隆抗体 (antibody, IgG2b, V domains shown)
VH: QIQLVQSGPELKKPGETVKISCKASGYTFTNYGMHWVKQAPGKDLKWMGWINTYTGEPTNADDFKGRFAFSLETSDRTAFLQINNLKNEDTATYFCARGHHYGNYAWFAYWGQGTLVTVSA
VL: DIVMTQSHKFMSTSVGDRVSITCKASQDVSLAVAWYQQKPGQSPKVLIYWASTRHTGVPDRFAGSGSGTDYTLTISSVQAEDLALYYCQQHYSTPWTFGGGTKLEIN
notes: also called 纯化的抗人SIRPα单克隆抗体
